Results taken from patent US20250276076A1 (Seagen, published 2025).
One block for each binder: values may come before it.

Assays:
[1] = target: T1, soluble human ALPP-Fc fusion dimer (human, UniProt P05187 23-506); assay: BLI (Octet), antibody on anti-human Fab-CH1 biosensors, hALPP Fc homodimer as analyte, pH 7.4, 37 °C, bivalent affinity
T1 construct: Made in CHO cells; also called hALPP; hALPP Fc
Source text: (§1) Soluble human ALPP-Fc and ALPPL2-Fc fusion dimer proteins were generated in CHO cells to be used as the analyte. […] After reference subtraction of the probe only curve, the data was globally fit with a 1:1 model with the Rmax sensor unlinked.

[2] = target: T1, soluble human ALPP-Fc fusion dimer; assay: BLI, antibody on FAB2G biosensors, ALPP-Fc dimer as analyte, bivalent, pH 6.0, 37 C
Source text: as §1
(§2) The only difference was the use of a different kinetic buffer (1% casein and 0.2% Tween20 in phosphate citrate pH 6.0).

[3] = target: T2, soluble human ALPPL2-Fc fusion dimer (human, UniProt P10696 20-503); assay: BLI, antibody on FAB2G biosensors, ALPPL2-Fc dimer as analyte, bivalent, pH 6.0, 37 C
T2 construct: Made in CHO cells; also called hALPPL2
T2 sequence (P10696 20-503 limits assumed): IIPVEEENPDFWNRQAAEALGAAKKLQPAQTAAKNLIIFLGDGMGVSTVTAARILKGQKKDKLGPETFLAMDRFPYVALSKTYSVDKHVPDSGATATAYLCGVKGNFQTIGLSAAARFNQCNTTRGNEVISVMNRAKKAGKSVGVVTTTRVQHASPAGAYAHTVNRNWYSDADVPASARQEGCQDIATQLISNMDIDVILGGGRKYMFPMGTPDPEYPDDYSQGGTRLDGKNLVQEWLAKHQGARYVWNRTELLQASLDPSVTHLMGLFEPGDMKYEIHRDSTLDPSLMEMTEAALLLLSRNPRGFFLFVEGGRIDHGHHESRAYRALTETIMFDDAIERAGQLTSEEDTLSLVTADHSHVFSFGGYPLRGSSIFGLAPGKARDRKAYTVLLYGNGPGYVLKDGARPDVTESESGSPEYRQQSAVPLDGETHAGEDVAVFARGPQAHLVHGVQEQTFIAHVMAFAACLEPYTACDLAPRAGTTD
Source text: as §1, §2

[4] = target: T1, soluble human ALPP-Fc fusion dimer; assay: BLI (Octet Red 384), antibody on FAB2G biosensors, ALPP-Fc dimer as analyte, bivalent, pH 7.4, 37 C, 1:1 global fit
Source text: as §1

[5] = target: T2, soluble human ALPPL2-Fc fusion dimer; assay: BLI (Octet Red 384), antibody on FAB2G biosensors, ALPPL2-Fc dimer as analyte, bivalent, pH 7.4, 37 C, 1:1 global fit
Source text: as §1

[6] = target: T3, hscFcRN (biotinylated avi-tagged, fused with monomeric Fc) (human, UniProt P55899 24-297; P61769 21-119, limits assumed, biotin on avi tag); assay: BLI (Octet HTX, 30 °C), biotinylated hFcRN on streptavidin biosensors, ADC as analyte, 1:1 fit, pH 6.0
T3 construct: also called hFcRN; hscFcRN hmFc IHH A avi Biotin
Source text: (§3) Biotinylated avi-tagged human Fc receptors fused with monomeric Fc (designed and expressed at Seagen) were loaded onto high precision streptavidin biosensors (from ForteBio) to responses around 0.4 nm for all receptors except for hFcγR1 with responses around 1.2 nm. An initial baseline was completed in immobilization buffer (0.1% BSA, 0.02% Tween 20, 1×PBS pH 7.4) followed by a second baseline in kinetic buffer (1% casein, 0.2% Tween 20, 1×PBS pH 7.4 for hFcγRI, IIa, IIIa, and IIb interactions and 1% BSA+0.2% Tween 20, Phosphate Citrate pH 6.0 for hscFcRN interactions). […] Sensorgrams were generated on an Octet HTX system (ForteBio) at 30° C. and globally fitted with the 1:1 kinetic Langmuir isotherm model (Rmax unlinked) after a reference subtraction of the antigen-loaded, 0 nM analyte sensor. Negative controls with the highest concentration of antibodies and ADCs (20 μM) with no Fc receptor immobilized were also included to verify the absence of nonspecific binding of the analyte to the streptavidin biosensors themselves. Specific loading concentrations and times of each receptor to the streptavidin sensors and concentrations of titrated analytes are listed (Table 12 and Table 13).

[7] = target: T4, hFcγRIIIa V158 (biotinylated avi-tagged, fused with monomeric Fc) (human, UniProt P08637 17-208, biotin on avi tag); assay: BLI (Octet HTX, 30 °C), biotinylated Fc receptor on streptavidin biosensors, ADC as analyte, 1:1 fit, pH 7.4
T4 construct: also called hFcγRIIIa V158 hmFc AAG avi Biotin
T4 sequence (P08637 17-208 F176V): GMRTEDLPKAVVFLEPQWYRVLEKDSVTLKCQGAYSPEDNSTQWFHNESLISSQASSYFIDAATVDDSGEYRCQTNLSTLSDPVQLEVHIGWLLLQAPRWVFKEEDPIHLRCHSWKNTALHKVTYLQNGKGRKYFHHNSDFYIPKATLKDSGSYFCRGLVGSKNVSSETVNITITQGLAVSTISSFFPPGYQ
Source text: as §3

[8] = target: T5, hFcγRIIb (biotinylated avi-tagged, fused with monomeric Fc) (human, UniProt P31994 43-217, biotin on avi tag); assay: as above
T5 construct: also called hFcγRIIb hmFc AAG avi Biotin
T5 sequence (looked up): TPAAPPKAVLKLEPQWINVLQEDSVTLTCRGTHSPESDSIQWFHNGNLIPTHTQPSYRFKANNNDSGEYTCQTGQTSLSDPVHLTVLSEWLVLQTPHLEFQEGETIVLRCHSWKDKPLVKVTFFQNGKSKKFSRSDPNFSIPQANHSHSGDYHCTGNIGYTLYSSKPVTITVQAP
Source text: as §3

[9] = target: T6, hFcγRIIa R131 (biotinylated avi-tagged, fused with monomeric Fc) (human, UniProt P12318 34-217, biotin on avi tag); assay: as above
T6 construct: also called hFcγRIIa R131 hmFc AAG avi Biotin
T6 sequence (looked up): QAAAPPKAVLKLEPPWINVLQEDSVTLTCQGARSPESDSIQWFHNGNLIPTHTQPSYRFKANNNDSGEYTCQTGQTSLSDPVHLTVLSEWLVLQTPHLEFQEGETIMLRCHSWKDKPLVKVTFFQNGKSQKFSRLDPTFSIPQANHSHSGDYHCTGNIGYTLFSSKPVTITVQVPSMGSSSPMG
Source text: as §3

human ALPP (on cells) [10] = target: T7, human ALPP (on cells) (human, UniProt P05187 23-506); assay: flow cytometry on ALPP-expressing HEK293 cells
T7 construct: the construct in the cells is not further defined; also called placental alkaline phosphatase; PLAP
T7 sequence (P05187 23-506 limits assumed): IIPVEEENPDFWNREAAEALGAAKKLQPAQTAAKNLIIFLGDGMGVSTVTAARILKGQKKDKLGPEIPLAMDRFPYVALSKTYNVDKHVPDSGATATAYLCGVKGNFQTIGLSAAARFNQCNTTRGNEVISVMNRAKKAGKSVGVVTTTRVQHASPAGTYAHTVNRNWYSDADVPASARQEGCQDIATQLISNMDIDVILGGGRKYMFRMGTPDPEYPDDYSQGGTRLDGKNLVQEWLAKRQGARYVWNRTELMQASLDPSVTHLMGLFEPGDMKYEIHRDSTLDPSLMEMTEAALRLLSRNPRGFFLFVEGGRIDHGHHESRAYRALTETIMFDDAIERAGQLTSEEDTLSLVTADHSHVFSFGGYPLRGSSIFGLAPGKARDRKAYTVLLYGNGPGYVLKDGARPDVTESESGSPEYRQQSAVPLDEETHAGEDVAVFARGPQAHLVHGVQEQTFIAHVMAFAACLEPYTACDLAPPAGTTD
Method: (§4) Cynomolgus ALPP, human ALPP, ALPPL2, ALPI and ALPL-expressing HEK293 cells were used to evaluate specificity and binding affinity. Briefly, one hundred thousand target-expressing HEK293 cells were transferred to 96-well plates. Cells were pelleted by centrifugation and resuspended in 100 μL of PBS+2% w/v BSA. After blocking, cells were resuspended in PBS+2% w/v BSA with unlabeled monoclonal anti-ALPP/ALPPL2 antibodies ranging in concentration from 8 pM to 666 nM and incubated on ice for 30 minutes. Cells were washed twice in PBS and resuspended in R-PE labeled secondary goat anti-human or anti-mouse antibodies (Jackson Immunoresearch, West Grove, PA) for 30 minutes on ice. […] Fluorescence was analyzed using an Attune NxT flow cytometer, and the percent of saturated fluorescent signal was used to determine percent bound and to subsequently calculate apparent KD.

human ALPPL2 (on cells) [11] = target: T8, human ALPPL2 (on cells) (human, UniProt P10696 20-503); assay: flow cytometry on ALPPL2-expressing HEK293 cells
T8 construct: the construct in the cells is not further defined; also called HEK-ALPPL2 cells; ALPPL2-expressing LoVo cells
T8 sequence (P10696 20-503 limits assumed): as the sequence (P10696 20-503 limits assumed) above
Method: as §4

human ALPP (on cells) [12] = target: T7, human ALPP (on cells); assay: flow cytometry saturation binding on ALPP-expressing HEK293 cells (row 'nM Kd' of the table under the plot)
Method: as §4

human ALPPL2 (on cells) [13] = target: T8, human ALPPL2 (on cells); assay: flow cytometry saturation binding on ALPPL2-expressing HEK293 cells (row 'nM Kd' of the table under the plot)
Method: as §4

T1 sequence (P05187 23-506 limits assumed): as the sequence (P05187 23-506 limits assumed) above

B1: h12F3 HFLD (antibody, V domains shown)
VH: EVQLVESGGGLVQPGRSLRLSCTASGFTFTDYYMSWVRQAPGKGLEWLALIRNKATGYTTEYSASVKGRFTISRDNSKSILYLQMNSLKTEDTAVYYCARASFYYDGKVLAYWGQGTLVTVSS
VL: DTQMTQSPSSLSASVGDRVTITCQASQDINKYIAWYQQKPGKAPKLLIYYTSSLQPGVPSRFSGSGSGTDYTFTISSLQPEDIATYYCLQYDNLYTFGQGTKLEIKR
notes: humanized 12F3 IgG variant
Kd [1]: 3.5 nM

B2: h12F3 HGLF (antibody, V domains shown)
VH: EVQLVESGGGLVQPGRSLRLSCTASGFTFTDYYMSWVRQAPGKGLEWLALIRNKATGYTTEYTASVKGRFTISRDNSKSILYLQMNSLKTEDTAVYYCARASFYYDGKVLAYWGQGTLVTVSS
VL: DTQMTQSPSSLSASVGDRVTITCQASQDINKYLAWYQYKPGKAPKLLIHYTSSLQSGVPSRFSGSGSGRDYTFTISSLQPEDIATYYCLQYDNLYTFGQGTKLEIK
notes: Whole humanized IgG; also called humanized 12F3 HGLF; naked h12F3 antibody
Kd [2]: 6.8 nM
Kd [3]: 4.8 nM
Kd [4]: 0.13 nM
Kd [5]: 0.044 nM

Other lines, results leading:

Kd [6]: 10.6 nM
Kd [7]: 1100 nM
Kd [8]: 36000 nM
B3: h12F3 HGLF-mp-dLAE-MMAE (antibody)
VH: not shown
VL: DTQMTQSPSSLSASVGDRVTITCQASQDINKYLAWYQYKPGKAPKLLIHYTSSLQSGVPSRFSGSGSGRDYTFTISSLQPEDIATYYCLQYDNLYTFGQGTKLEIKRTVAAPSVFIFPPSDEQLKSGTASVVCLLNNFYPREAKVQWKVDNALQSGNSQESVTEQDSKDSTYSLSSTLTLSKADYEKHKVYACEVTHQGLSSPVTKSFNRGEC
modifications: mp-dLAE-PABC-MMAE drug-linker on cysteines of the partially reduced antibody, 4 loads per antibody (chain and site not stated)
notes: antibody-drug conjugate of h12F3 HGLF; also called h12F3-mp-dLAE-MMAE; HGLF-dLAE-MMAE(4); copies: 2 + 2

Kd [6]: 13.2 nM
Kd [9]: 7300 nM
Kd [8]: 67000 nM
B4: h12F3 HGLF-mc-vc-MMAE (antibody)
VH: not shown
VL: DTQMTQSPSSLSASVGDRVTITCQASQDINKYLAWYQYKPGKAPKLLIHYTSSLQSGVPSRFSGSGSGRDYTFTISSLQPEDIATYYCLQYDNLYTFGQGTKLEIKRTVAAPSVFIFPPSDEQLKSGTASVVCLLNNFYPREAKVQWKVDNALQSGNSQESVTEQDSKDSTYSLSSTLTLSKADYEKHKVYACEVTHQGLSSPVTKSFNRGEC
modifications: mc-vc-PABC-MMAE drug-linker on cysteines of the partially reduced antibody, 4 loads per antibody (chain and site not stated)
notes: antibody-drug conjugate of h12F3 HGLF; also called h12F3 HGLF-me-vc-MMAE; h12F3 HGLF-vc-MMAE(4); copies: 2 + 2

EC50 (read off the curve) (human ALPP (on cells) [10]): ~0.3 µg/mL
EC50 (read off the curve) (human ALPPL2 (on cells) [11]): ~0.3 µg/mL
Kd (human ALPP (on cells) [12]): 1.76 nM
Kd (human ALPPL2 (on cells) [13]): 1.48 nM
B5: murine antibody 12F3 (antibody, V domains shown)
VH: EVKLVESGGGLVQPGGSLSLSCAASGFTFTDYYMSWVRQPPGKALEWLALIRNKATGYTTEYSASVKGRFTISRDNSQSILYLQMNALRAEDSATYYCARASFYYDGKVLAYWGQGTLVTVSA
VL: DTQMTQSPSSLSASLGGKVTITCKASQDINKYIAWYQYKTGKGPRLLIHYTSTLQPGIPSRFSGSGSGRDYSFSISNLEPEDIATYYCLQYDNLYTFGGGTKLEIK
notes: mouse hybridoma antibody; also called SG82-12F3; m12F3
